Results on one substance are retold here after patent US6515118.

Data set [1] addresses T1, DFF-40, 40-kDa subunit of DNA Fragmentation Factor (DFF), purified from HeLa cell S-100 (UniProt O76075).
T1 sequence: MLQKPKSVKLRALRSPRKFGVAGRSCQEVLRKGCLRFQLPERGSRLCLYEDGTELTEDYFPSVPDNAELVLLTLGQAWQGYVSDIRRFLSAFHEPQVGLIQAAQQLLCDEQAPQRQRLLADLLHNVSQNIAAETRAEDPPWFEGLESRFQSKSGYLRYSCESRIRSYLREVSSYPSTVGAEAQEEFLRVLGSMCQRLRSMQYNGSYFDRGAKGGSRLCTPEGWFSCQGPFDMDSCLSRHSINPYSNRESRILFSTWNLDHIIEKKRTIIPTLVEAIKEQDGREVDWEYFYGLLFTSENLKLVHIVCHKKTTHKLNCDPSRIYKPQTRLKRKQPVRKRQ

Data set [2] has as its system DFF-45, 45-kDa subunit of DNA Fragmentation Factor (DFF), purified from HeLa cell S-100.
The test system of data set [3] is poly(ADP-ribose) polymerase (PARP) in co-incubated nuclei.
In data set [4] the test system is lamin B1 in co-incubated nuclei.
Data set [5] deals with recombinant DFF-45 fusion protein with a six-histidine tag at the NH2-terminus.
Data set [6] relates to Ac-Asp-Glu-Ala-Asp-aldehyde (Ac-DEAD-CHO).

For the substance active recombinant caspase-3, the “cleavage of biotinylated DFF (SDS-PAGE, streptavidin-peroxidase chemiluminescence)” value is “the 40-kDa subunit remained intact” in data set [1]; “Incubation with caspase-3 resulted in the cleavage of the 45-kDa subunit into fragments of molecular masses of 30 kDa and 11 kDa” in data set [2]. In addition, the “rate of PARP cleavage in nuclei (immunoblot)” value in data set [3] is recorded as “The same conclusion was obtained when the rate of cleavage of PARP was measured”. Further, the “time course of lamin B1 cleavage in nuclei (immunoblot)” value in data set [4] is “the rate of Lamin B1 cleavage by caspase-3 remained the same with or without DFF”. Moreover, in data set [5], the “cleavage of the purified fusion protein (SDS-PAGE)” value was “Incubation of this fusion protein with caspase-3 resulted in its cleavage into three fragments of 30 kDa, 18 kDa and 11 kDa at the early time point”. In addition, in data set [6], the “cleavage of PARP and lamin B1 in co-incubated nuclei (immunoblot)” value is “Ac-DEAD SEQ ID NO:6-CHO still blocked the cleavage of both PARP and lamin B1 in the co-incubated nuclei”.
